Drawing on publication doi:10.1101/2025.09.19.677352, this text covers maximum response against concentration-matched ap SC wt, SPR response and maximum response for six substances.

Assay [1] concerns the target ap JFcα (mallard duck IgA heavy chain Cα2-Cα3-Cα4-Tp co-expressed with joining chain) (Anas platyrhynchos (mallard duck)). Put plainly: SPR. On the technique in general: Surface plasmon resonance follows binding to a sensor surface in real time, without labels.
Assay [2] has as its target mm JFcα (mouse IgA heavy chain and joining chain) (Mus musculus (house mouse)). Put plainly: SPR.

Take “ap SC D1_(ΔN-ext.)-D2-D3-D4 (mallard duck SC without the SC N-terminal extension) (domain or fragment)”: the maximum response against concentration-matched ap SC wt in assay [1] is 20 % lower.

As for “hs SC D1 (human SC D1 only) (domain or fragment)”, the SPR response in assay [1] came out at 29 RU. For the substance “hs SC D1-D3-D4-D5 (human SC with D2 deletion) (from UniProt P01833 19-638) (domain or fragment)”, in assay [1], the SPR response worked out at 34 RU. For “mm SC D1 (mouse SC D1 only) (domain or fragment)”, the SPR response in assay [1] is 7 RU. The same measure, in the same setting: then “mm SC D1-D3-D4-D5 (mouse SC with D2 deletion) (from UniProt O70570 19-585) (domain or fragment)”, with 1 RU.

In the case of “mm SC D1_((+)N-ext.) (mouse SC D1 with the mallard duck SC N-terminal extension)”, the maximum response at 64 nM against the non-chimeric variant in assay [2] is 93 % higher.
